From US20230212319A1, “NOVEL ANTIGEN BINDING DOMAINS AND SYNTHETIC ANTIGEN RECEPTORS INCORPORATING THE SAME” (University of Southern California, priority 2020, published 2023)

Key:
Assay type in all cases: cell-based
[1] = system: RAJI-CD19-KO cells; experiment: JNG assay, co-culture with RAJI-CD19-KO cells; details: co-culture with Raji-CD19-KO
Summary of the method: (§1)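 Read-out is NFAT-driven GFP measured by flow cytometry after ~4–18 h co-culture of SAR-expressing JNG cells with target cells (E:T about 1:2). SARs were introduced by lentiviral spinfection and selected with puromycin or blasticidin when possible; scores (+/- to 5+ ≈ 5–50% GFP+) are relative to parental JNG cells.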

[2] = system: L363 cells; experiment: JNG assay, co-culture with L363 cells; details: co-culture with L363
Summary of the method: as §1

[3] = system: Nalm6 cells; experiment: JNG assay, co-culture with Nalm6 cells; details: co-culture with Nalm6
Summary of the method: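 Read-out: % GFP-positive cells by flow cytometry after ~4 to 18 h coculture of SAR-transduced JNG cells with targets (E:T about 1:2). Scores reflect GFP induction above parental JNG controls: +/- ≈5%, + ≈10%, up to 5+ ≈50%.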

[4] = system: RS;411; experiment: JNG assay, co-culture with RS;411 cells; details: co-culture with RS411
Summary of the method: as §1

[5] = system: U266 cells; experiment: JNG NFAT-GFP induction on co-culture with U266
[6] = system: RAJI cells; experiment: JNG assay, co-culture with RAJI cells; details: JNG cells expressing construct, co-culture with Raji
Summary of the method: as §1

Molecule | NFAT-GFP ASSAY: Raji-CD19-KO [1] | NFAT-GFP ASSAY: L363 [2] | NFAT-GFP ASSAY: Nalm6 [3] | NFAT-GFP ASSAY: RS411 [4] | NFAT-GFP ASSAY: U266 [5] | NFAT-GFP ASSAY: Raji [6]
22225 (protein) MALPVTALLLPLALLLHAARPDIQMTQSPSSLSASVGDRVTITCKASDHINNWLAWYQQKPGQAPKLLIYGATTLETGVPSRFSGSGSGTDYTLTISSLQPEDFATYYCQQSWNTPWTFGQGTKLEIKRLEDLKNVFPPEVAVFEPSEAEISHTQKATLVCLATGFYPDHVELSWWVNGKEVHSGVCTDPQPLKEQPALNDSRYCLSSRLRVSATFWQNPRNHFRCQVQFYGLSENDEWTQDRAKPVTQIVSAEAWGRADCGFTSESYQQGVLSATILYEILLGKATLYAVLVSALVLMAMVKRKDSRGRAKRSGSGATNFSLLKQAGDVEENPGPTSATMDWIWRILFLVGAATGAHSGPEVQLVESGGGLVQAGGSLRLSCAASGRTFTMGWFRQAPGKEREFVAAISLSPTLAYYADSVKGRFTISRDNAKNTVVLQMNSLKPEDTALYYCAADRKSVMSIRPDYWGQGTQVTVSSGSGPLGIAGIFEQVQLQQPGAELVKPGASVKMSCKASGYAFSSYWINWMKQKPGQGLEWIGQIYPGDGDTNYNGKFKGRATLTADTSSSTAYMQLSSLTSEDSAVYFCARSITTVVGCAMDYWGQGTSVTVSSTRIQNPDPAVYQLRDSKSSDKSVCLFTDFDSQTNVSQSKDSDVYITDKCVLDMRSMDFKSNSAVAWSNKSDFACANAFNNSIIPEDTFFPSPESSCDVKLVEKSFETDTNLNFQNLSVIGFRILLLKVAGFNLLMTLRLWSSRAKRSGSGVKQTLNFDLLKLAGDVESNPGPSRGHMTEYKPTVRLATRDDVPRAVRTLAAAFADYPATRHTVDPDRHIERVTELQELFLTRVGLDIGKVWVADDGAAVAVWTTPESVEAGAVFAEIGPRMAELSGSRLAAQQQMEGLLAPHRPKEPAWFLATVGVSPDHQGKGLGSAVVLPGVEAAERAGVPAFLETSAPRNLPFYERLGFTVTADVEVPEGPRTWCMTRKPGA | 4+ (refer to approximately 5%, 10%, 20%, 30%, 40% and 50% GFP positive cells) | 3+ (refer to approximately 5%, 10%, 20%, 30%, 40% and 50% GFP positive cells) | 3+ (refer to approximately 5%, 10%, 20%, 30%, 40% and 50% GFP positive cells) | 2+ (refer to approximately 5%, 10%, 20%, 30%, 40% and 50% GFP positive cells) | 5+ (refer to approximately 5%, 10%, 20%, 30%, 40% and 50% GFP positive cells) | 
22250 (protein) MALPVTALLLPLALLLHAARPDIQMTQSPSSLSASVGDRVTITCKASDHINNWLAWYQQKPGQAPKLLIYGATTLETGVPSRFSGSGSGTDYTLTISSLQPEDFATYYCQQSWNTPWTFGQGTKLEIKRLEDLKNVFPPEVAVFEPSEAEISHTQKATLVCLATGFYPDHVELSWWVNGKEVHSGVCTDPQPLKEQPALNDSRYCLSSRLRVSATFWQNPRNHFRCQVQFYGLSENDEWTQDRAKPVTQIVSAEAWGRADCGFTSESYQQGVLSATILYEILLGKATLYAVLVSALVLMAMVKRKDSRGRAKRSGSGATNFSLLKQAGDVEENPGPTSATMDWIWRILFLVGAATGAHSGPEVQLVESGGGLVQAGGSLRLSCAASGRTFTMGWFRQAPGKEREFVAAISLSPTLAYYADSVKGRFTISRDNAKNTVVLQMNSLKPEDTALYYCAADRKSVMSIRPDYWGQGTQVTVSSGSGPLGIAGIFEQVQLQQPGAELVKPGASVKMSCKASGYAFSSYWINWMKQKPGQGLEWIGQIYPGDGDTNYNGKFKGRATLTADTSSSTAYMQLSSLTSEDSAVYFCARSITTVVGCAMDYWGQGTSVTVSSTRIQNPDPAVYQLRDSKSSDKSVCLFTDFDSQTNVSQSKDSDVYITDKCVLDMRSMDFKSNSAVAWSNKSDFACANAFNNSIIPEDTFFPSPESSCDVKLVEKSFETDTNLNFQNLSVIGFRILLLKVAGFNLLMTLRLWSSRAKRSGSGVKQTLNFDLLKLAGDVESNPGPSRGHMTEYKPTVRLATRDDVPRAVRTLAAAFADYPATRHTVDPDRHIERVTELQELFLTRVGLDIGKVWVADDGAAVAVWTTPESVEAGAVFAEIGPRMAELSGSRLAAQQQMEGLLAPHRPKEPAWFLATVGVSPDHQGKGLGSAVVLPGVEAAERAGVPAFLETSAPRNLPFYERLGFTVTADVEVPEGPRTWCMTRKPGA | 4+ (refer to approximately 5%, 10%, 20%, 30%, 40% and 50% GFP positive cells) | 3+ (refer to approximately 5%, 10%, 20%, 30%, 40% and 50% GFP positive cells) | 3+ (refer to approximately 5%, 10%, 20%, 30%, 40% and 50% GFP positive cells) | 2+ (refer to approximately 5%, 10%, 20%, 30%, 40% and 50% GFP positive cells) | 5+ (refer to approximately 5%, 10%, 20%, 30%, 40% and 50% GFP positive cells) | 
22221 (protein) MALPVTALLLPLALLLHAARPACEVQLLESGGGLIQPGGSLRLSCAASGFTFSSHAMTWVRQAPGKGLEWVSAISGSGDYTHYADSVKGRFTISRDNSKNTVYLQMNSLRAEDSAVYYCAKDEDGGSLLGHRGQGTLVTVSSGTGPQGIFGQPGYINEFDIQMTQSPSSLSASVGDRVTITCKASDHINNWLAWYQQKPGQAPKLLIYGATTLETGVPSRFSGSGSGTDYTLTISSLQPEDFATYYCQQSWNTPWTFGQGTKLEIKRLEDLKNVFPPEVAVFEPSKAEIAHTQKATLVCLATGFYPDHVELSWWVNGKEVHSGVCTDPQPLKEQPALNDSRYCLSSRLRVSATFWQNPRNHFRCQVQFYGLSENDEWTQDRAKPVTQIVSAEAWGRADCGITSASYHQGVLSATILYEILLGKATLYAVLVSALVLMAMVKRKDSRGRAKRSGSGATNFSLLKQAGDVEENPGPTSATMDWIWRILFLVGAATGAHSGPEVQLVESGGGLVQAGGSLRLSCAASGRTFSMGWFRQAPGKEREFVAAITYSGGSPYYADSVKGRFTISRDNAKNTVYLQMNSLKPEDTAVYYCAANPTYGSDWNAENWGQGTQVTVSSGSGGGGSGGGGSGGGGSFEQVQLQQPGAELVKPGASVKMSCKASGYAFSSYWINWMKQKPGQGLEWIGQIYPGDGDTNYNGKFKGRATLTADTSSSTAYMQLSSLTSEDSAVYFCARSITTVVGCAMDYWGQGTSVTVSSTRIQNPDPAVYQLRDSKSSDKSVCLFTDFDSQTNVSQSKDSDVYITDKCVLDMRSMDFKSNSAVAWSNKSDFACANAFNNSIIPEDTFFPSPESSCDVKLVEKSFETDTNLNFQNLSVIGFRILLLKVAGFNLLMTLRLWSSRAKRSGSGVKQTLNFDLLKLAGDVESNPGPSRGHMTEYKPTVRLATRDDVPRAVRTLAAAFADYPATRHTVDPDRHIERVTELQELFLTRVGLDIGKVWVADDGAAVAVWTTPESVEAGAVFAEIGPRMAELSGSRLAAQQQMEGLLAPHRPKEPAWFLATVGVSPDHQGKGLGSAVVLPGVEAAERAGVPAFLETSAPRNLPFYERLGFTVTADVEVPEGPRTWCMTRKPGA |  | + (refer to approximately 5%, 10%, 20%, 30%, 40% and 50% GFP positive cells) | + (refer to approximately 5%, 10%, 20%, 30%, 40% and 50% GFP positive cells) | + (refer to approximately 5%, 10%, 20%, 30%, 40% and 50% GFP positive cells) | 2+ (refer to approximately 5%, 10%, 20%, 30%, 40% and 50% GFP positive cells) | 
22249 (protein) MALPVTALLLPLALLLHAARPDIQMTQSPSSLSASVGDRVTITCKASDHINNWLAWYQQKPGQAPKLLIYGATTLETGVPSRFSGSGSGTDYTLTISSLQPEDFATYYCQQSWNTPWTFGQGTKLEIKRLEDLKNVFPPEVAVFEPSEAEISHTQKATLVCLATGFYPDHVELSWWVNGKEVHSGVCTDPQPLKEQPALNDSRYCLSSRLRVSATFWQNPRNHFRCQVQFYGLSENDEWTQDRAKPVTQIVSAEAWGRADCGFTSESYQQGVLSATILYEILLGKATLYAVLVSALVLMAMVKRKDSRGRAKRSGSGATNFSLLKQAGDVEENPGPTSATMDWIWRILFLVGAATGAHSGPEVQLVESGGGLVQAGGSLRLSCAASGRTFTMGWFRQAPGKEREFVAAISLSPTLAYYADSVKGRFTISRDNAKNTVVLQMNSLKPEDTALYYCAADRKSVMSIRPDYWGQGTQVTVSSGSALRRLLGLFGFEQVQLQQPGAELVKPGASVKMSCKASGYAFSSYWINWMKQKPGQGLEWIGQIYPGDGDTNYNGKFKGRATLTADTSSSTAYMQLSSLTSEDSAVYFCARSITTVVGCAMDYWGQGTSVTVSSTRIQNPDPAVYQLRDSKSSDKSVCLFTDFDSQTNVSQSKDSDVYITDKCVLDMRSMDFKSNSAVAWSNKSDFACANAFNNSIIPEDTFFPSPESSCDVKLVEKSFETDTNLNFQNLSVIGFRILLLKVAGFNLLMTLRLWSSRAKRSGSGVKQTLNFDLLKLAGDVESNPGPSRGHMTEYKPTVRLATRDDVPRAVRTLAAAFADYPATRHTVDPDRHIERVTELQELFLTRVGLDIGKVWVADDGAAVAVWTTPESVEAGAVFAEIGPRMAELSGSRLAAQQQMEGLLAPHRPKEPAWFLATVGVSPDHQGKGLGSAVVLPGVEAAERAGVPAFLETSAPRNLPFYERLGFTVTADVEVPEGPRTWCMTRKPGA | 2+ (refer to approximately 5%, 10%, 20%, 30%, 40% and 50% GFP positive cells) | 2+ (refer to approximately 5%, 10%, 20%, 30%, 40% and 50% GFP positive cells) |  | + (refer to approximately 5%, 10%, 20%, 30%, 40% and 50% GFP positive cells) | 4+ (refer to approximately 5%, 10%, 20%, 30%, 40% and 50% GFP positive cells) | + (refer to approximately 5%, 10%, 20%, 30%, 40% and 50% GFP positive cells)
